Test results: patent US20200255860, “A STRONG INSULATOR AND USES […] IN GENE DELIVERY” (CHILDREN'S HOSPITAL MEDICAL CENTER, published 2020)
Residue numbers refer to the chain shown, from its start.

T1: CTCF (Homo sapiens, UniProt P49711 P49711:1-727)
T1 sequence: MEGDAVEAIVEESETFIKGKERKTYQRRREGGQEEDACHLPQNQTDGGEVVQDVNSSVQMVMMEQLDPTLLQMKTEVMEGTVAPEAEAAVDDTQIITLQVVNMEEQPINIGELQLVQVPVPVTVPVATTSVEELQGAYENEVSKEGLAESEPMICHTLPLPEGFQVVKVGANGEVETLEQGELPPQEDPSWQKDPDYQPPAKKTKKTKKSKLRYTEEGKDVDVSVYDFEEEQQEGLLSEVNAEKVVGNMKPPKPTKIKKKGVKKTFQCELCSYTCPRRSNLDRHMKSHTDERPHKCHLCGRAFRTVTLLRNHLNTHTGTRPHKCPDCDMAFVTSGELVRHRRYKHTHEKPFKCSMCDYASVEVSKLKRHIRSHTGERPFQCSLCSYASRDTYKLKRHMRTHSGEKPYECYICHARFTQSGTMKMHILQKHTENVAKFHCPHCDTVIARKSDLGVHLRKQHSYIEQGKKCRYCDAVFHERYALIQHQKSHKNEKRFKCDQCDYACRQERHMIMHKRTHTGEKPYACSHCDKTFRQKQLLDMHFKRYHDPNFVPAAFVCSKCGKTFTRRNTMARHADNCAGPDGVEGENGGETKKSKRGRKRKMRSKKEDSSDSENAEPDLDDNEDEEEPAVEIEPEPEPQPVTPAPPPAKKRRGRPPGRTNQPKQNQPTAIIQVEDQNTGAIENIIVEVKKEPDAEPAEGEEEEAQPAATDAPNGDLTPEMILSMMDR

B1: FV2 probe (dsDNA)
DNA 1: AGTAAAAGGATTTGTATATTAGCCTTGCTAAGGGAGACATCTAGTGATATAAGTGTGAACTACACTTATCTTAAATGATG
DNA 2: CATCATTTAAGATAAGTGTAGTTCACACTTATATCACTAGATGTCTCCCTTAGCAAGGCTAATATACAAATCCTTTTACT
B2: FV2 mutant 4 (dsDNA)
DNA 1: B1 DNA 1 with T19G, T20G, A21C, G22T, C23T, C24T, T25A, G27A, C28T, T29C
DNA 2: B1 DNA 2 with A52G, G53A, C54T, A56T, G57A, G58A, C59A, T60G, A61C, A62C
B3: LV3 probe (dsDNA)
DNA 1: GTCGGGGAAGCTGACGTCCTTTCGAATTCGATATCAAGCTGTACCTTTAAGACCAATGACTTACAAGGCAGCTGTAGATC
DNA 2: GATCTACAGCTGCCTTGTAAGTCATTGGTCTTAAAGGTACAGCTTGATATCGAATTCGAAAGGACGTCAGCTTCCCCGAC
B4: LV2 probe (dsDNA)
DNA 1: GATACCTAAAGGATCAACAGCTCCTGGGGATTTGGGGTTGCTCTGGAAAACTCATTTGCACCACTGCTGTGCCTTGGAATGCT
DNA 2: AGCATTCCAAGGCACAGCAGTGGTGCAAATGAGTTTTCCAGAGCAACCCCAAATCCCCAGGAGCTGTTGATCCTTTAGGTATC
B5: LV1 probe (dsDNA)
DNA 1: ACAAGATAGAGGAAGAGCAAAACAAAAGTAAGACCACCGCACAGCAAGCGGCCGCTGATCTTCAGACCTGGAGGAGGAGATATGAGGGA
DNA 2: TCCCTCATATCTCCTCCTCCAGGTCTGAAGATCAGCGGCCGCTTGCTGTGCGGTGGTCTTACTTTTGTTTTGCTCTTCCTCTATCTTGT

Legend:
Details in all cases: tags: full-length, Abnova; label: IRDye700 5' both strands
[1] = biological target: T1, CTCF; experiment: EMSA; 20 mM HEPES pH 7.5, 50 mM KCl, 5 mM MgCl2, 3.3 uM ZnSO4, poly(dI:dC), room temp; competed by unlabeled H19
[2] = biological target: T1, CTCF; experiment: EMSA; region 4 mutated, no effect
[3] = biological target: T1, CTCF; experiment: EMSA; no LV probe bound

Binder	binding result [3]	other results
B1	–	binding result [1]: binds
B2	–	binding result [2]: binds
B3	no binding	–
B4	no binding	–
B5	no binding	–
